Laboratory results taken from the Human Domainome abundance scans (Beltran et al. 2025).

B1: POU domain, class 3, transcription factor 2, residues 356 to 411; numbered along this chain, P20265 (parent)
chain: KKRTSIEVSVKGALESHFLKCPKPSAQEITSLADSLQLEKEVVRVWFCNRRQKEKR
B2: Cytoplasmic polyadenylation element-binding protein 2, residues 513 to 575; numbered along this chain, Q7Z5Q1 (parent)
chain: KRVEVKPYVLDDQMCDECQGARCGGKFAPFFCANVTCLQYYCEFCWANIHSRAGREFHKPLVK

Variants of: B1
Assay: abundance fitness (aPCA) (normalised: wild type 0, dead -1); higher = more abundant; growth selection in yeast, the domain comes from the species named
Details: Homo sapiens

Abundance fitness, by site and new letter:
V8: D -0.064; Q 0.069; P 0.119; S 0.096; F 0.065; A 0.202; G 0.091; H 0.128; C -0.327; I 0.051; W -0.131; E 0.093; N 0.212; M 0.046; L 0.007; R 0.049; T 0.011
G12: N -0.153; S 0.097; C 0.039; T 0.21; L 0.117; F -0.085; E 0.079; P -0.152; M 0.068; Y -0.058; V 0.22; D -0.027; A 0.124; I 0.193; K -0.056; Q -0.053; H -0.015; R -0.045
S5: L 0.002; I 0.118; R -0.105; P 0.007; G 0.024; V 0.229; T 0.173; C 0.033; F -0.053; K 0.14; A -0.001; D -0.174; Q 0.095; H 0.095; Y -0.183; M -0.018; W -0.313
L14: A -1.04; E -0.794; Q -0.848; N -0.632; F -0.814; T -0.953; W -0.915; K -0.933; V -0.641; H -0.762; I -0.706; C -0.78; G -0.882; M -0.501; S -0.923; R -0.855
L19: S -0.03; M 0.007; E -0.026; G -0.245; V -0.056; I -0.113; N -0.075; D -0.142; C -0.114; P -0.911; K -0.162; F -0.474; Y -0.248; T -0.183; R 0.006
R3: M 0.031; V 0.051; P -0.134; S 0.023; G 0.092; F -0.021; L 0.01; C 0.246; W -0.273; I 0.045; A -0.168; N 0.13; K 0.054; T -0.009; H 0.002; Y 0.026
F18: A -0.902; W -0.335; L -0.836; N -0.856; K -0.936; C -0.914; G -0.976; T -1.2; I -1.1; R -0.872; H -0.938; S -0.824; V -1.03; M -1.02; D -0.875; E -0.979
E15: G -0.885; D -0.623; Q -0.527; R -1.02; Y -0.777; P -1.04; A -0.88; M -0.649; I -0.649; K -0.83; T -0.788; C -0.612; N -0.693; W -0.822; S -0.959; H -0.805
V10: F -0.568; G -0.318; R -0.266; L -0.134; K 0.041; P -0.554; M -0.134; C -0.294; H -0.095; A -0.036; W -0.19; I -0.013; T 0.046; Q -0.13; E -0.068
H17: M -0.047; K -0.364; V -0.287; R -0.556; N -0.229; I -0.289; A 0.127; E -0.139; P -1.05; Q -0.286; Y 0.156; C -0.283; D -0.833; G -0.712; L -0.292; S 0.089; T -0.1; W -0.02
K2: V -0.119; T -0.21; Y -0.06; S -0.18; R -0.166; I -0.207; C -0.395; E -0.07; G -0.087; F -0.199; L -0.222; P -0.525; W -0.246; D 0.028; N -0.339; Q -0.068; M -0.072; A -0.154; H -0.335
K1: V -0.072; Y -0.382; M -0.244; S -0.273; T -0.206; L -0.498; I -0.397; G -0.214; D 0.082; R -0.302; N -0.012; A -0.237
E7: S 0.191; D 0.066; C 0.014; V -0.21; Y -0.358; A -0.039; H 0.028; N 0.138; L -0.177; R -0.014; T 0.221; G 0.077; M 0.032; W -0.242; K -0.112; I -0.116
A13: L -0.074; K 0.081; C -0.044; H -0.196; I -0.184; S -0.162; P -0.442; D -0.356; R 0.083; Y -0.142; W -0.422; T -0.064; Q 0.011; G -0.379; N -0.211; E -0.067; F -0.019; M 0.024; V 0.042
K11: A -0.094; E 0.038; M -0.041; Y -0.239; T -0.027; L 0.03; W -0.039; F -0.139; C -0.264; V 0.026; N -0.143; H 0.031; D 0.099; G -0.134; P -0.269; I 0.074; R -0.126
I6: R -0.117; P -0.213; E -0.091; T -0.111; C -0.172; A -0.069; L 0.045; H -0.247; K 0.103; W -0.289; Q -0.226; F -0.438; D -0.072; S -0.053; M -0.049; G -0.119; Y -0.239
T4: Y -0.209; I 0.053; S -0.029; C -0.287; E 0.17; K -0.267; H -0.363; F 0.126; V -0.095; M -0.015; P -0.101; R -0.356; N -0.032; L -0.199; G -0.198; D 0.023; W -0.546; Q -0.107
K20: C -0.392; D -0.46; A -0.319; F -0.175; E -0.445
S9: R 0.108; F -0.366; I -0.197; M -0.025; V -0.123; W 0.004; Q 0.1; E 0.046; Y -0.267; K 0.109; P -0.041; T 0.09; H 0.057; L -0.153; N -0.198; G 0.046
S16: A 0.097; W -0.399; C -0.226; D -0.193; N -0.297; K 0.12; R -0.055; P -0.539; T -0.034; M -0.06; E -0.015; I -0.368; Q 0.073; Y -0.382; H -0.21

Variants of: B2
Assay: as above
Details: Homo sapiens

Abundance fitness: each site, then its substitutions
K1: V -0.509
K26: C -0.261
S51: K 0.106
M14: W -0.352
C23: K -0.194
H58: A -0.743
K59: P -0.247
P60: T -0.558
Q19: E 0.006
D16: E 0.047
C37: R -0.55
G20: M -0.756
H50: I -0.992
E17: M -0.188
L38: V -0.094
F30: S -0.195
